Article PMC11403483

Key:
[1] = target: recombinant murine Psg23-myc-His (mouse); assay: BLI
[2] = target: recombinant PSG1 (pregnancy-specific glycoprotein 1) (human) (UniProt P11464); assay: SPR
Chain of recombinant PSG1 (pregnancy-specific glycoprotein 1) (human) (P11464 35-419): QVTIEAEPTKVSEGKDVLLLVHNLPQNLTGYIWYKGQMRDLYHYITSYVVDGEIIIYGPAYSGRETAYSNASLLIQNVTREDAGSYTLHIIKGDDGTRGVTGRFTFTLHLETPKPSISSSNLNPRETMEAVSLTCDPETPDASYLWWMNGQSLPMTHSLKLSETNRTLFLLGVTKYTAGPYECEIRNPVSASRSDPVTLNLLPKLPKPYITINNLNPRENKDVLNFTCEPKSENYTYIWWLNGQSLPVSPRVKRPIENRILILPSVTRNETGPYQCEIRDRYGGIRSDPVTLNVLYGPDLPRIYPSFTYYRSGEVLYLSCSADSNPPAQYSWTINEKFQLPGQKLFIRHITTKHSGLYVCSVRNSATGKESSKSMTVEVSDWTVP

Chain of recombinant mouse galectin 9 (O08573 whole entry): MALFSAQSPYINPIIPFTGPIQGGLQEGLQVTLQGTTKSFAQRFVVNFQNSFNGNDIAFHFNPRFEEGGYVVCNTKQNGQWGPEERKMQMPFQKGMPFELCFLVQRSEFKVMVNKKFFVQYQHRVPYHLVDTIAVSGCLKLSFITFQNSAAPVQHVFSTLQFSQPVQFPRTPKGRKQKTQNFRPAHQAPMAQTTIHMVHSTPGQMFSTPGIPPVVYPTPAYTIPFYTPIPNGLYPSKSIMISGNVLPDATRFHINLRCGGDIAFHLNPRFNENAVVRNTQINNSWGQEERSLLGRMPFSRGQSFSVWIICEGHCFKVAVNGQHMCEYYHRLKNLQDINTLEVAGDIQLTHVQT

Row | Kd [1] [µM] | koff [1] [s⁻¹] | kon [1] [M⁻¹ s⁻¹] | Kd [2] [µM] | koff [2] [s⁻¹] | Substance
1 | 0.00228 | 0.00635 | 2.79e+06 |  |  | recombinant mouse galectin 9 (from UniProt O08573 1-353) (natural protein)
2 |  |  |  | 1.7 | 0.00415 | GAL-9 C-terminal carbohydrate recognition domain (domain or fragment)
3 |  |  |  | 5780 | 0.0106 | GAL-9 N-terminal carbohydrate recognition domain (domain or fragment)
